According to the supplement of paper PMC9112550, “Optimization of the antimicrobial peptide Bac7 by deep mutational scanning” (BMC Biology, 2022):

System: Escherichia coli TOP10
Experiment: shrunken log2 fold change of peptide-encoding DNA abundance (4.5 h post-induction vs induction); higher = less antimicrobial activity (less host growth inhibition)
Details: time post-induction: 4.5 h; library: site-saturation at positions 5, 18, 19, 20
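Note: peptides expressed intracellularly from a pBAD plasmid library in pooled LB shake-flask culture, induced with 0.3% L-arabinose, DNA abundance read by NGS, three biological replicates, DESeq2 with apeglm shrinkage.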

Sequence	shrunken log2 fold change
RRIRQRPPRLPRPRPRPVPIPRP	-0.0341
RRIRMRPPRLPRPRPRPINSPRP	-0.142
RRIRFRPPRLPRPRPRPNPCPRP	-0.349
RRIRQRPPRLPRPRPRPQRTPRP	0.0128
RRIRDRPPRLPRPRPRPYCFPRP	-0.744
RRIRIRPPRLPRPRPRPWGPPRP	0.102
RRIRLRPPRLPRPRPRPTEWPRP	-0.0906
RRIRLRPPRLPRPRPRPHPDPRP	-0.111
RRIRYRPPRLPRPRPRPTQQPRP	-0.00797
RRIRVRPPRLPRPRPRPAIFPRP	0.0175
RRIRCRPPRLPRPRPRPPNMPRP	-0.302
RRIRERPPRLPRPRPRPAYHPRP	-0.223
RRIRCRPPRLPRPRPRPFNNPRP	-0.701
RRIRERPPRLPRPRPRPSKEPRP	-0.0565
RRIRNRPPRLPRPRPRPDQSPRP	0.00307
RRIRQRPPRLPRPRPRPHQPPRP	0.00524
RRIRARPPRLPRPRPRPMSHPRP	0.148
RRIRYRPPRLPRPRPRPDYPPRP	-0.14
RRIRYRPPRLPRPRPRPSPAPRP	0.156
RRIRMRPPRLPRPRPRPLEEPRP	3.36
RRIRPRPPRLPRPRPRPWTGPRP	-0.125
RRIRERPPRLPRPRPRPWCDPRP	-0.508
RRIRMRPPRLPRPRPRPIIVPRP	-0.0119
RRIRSRPPRLPRPRPRPCGQPRP	0.088
RRIRYRPPRLPRPRPRPLMRPRP	-0.0447

Sequence	shrunken log2 fold change
RRIRLRPPRLPRPRPRPGEHPRP	-0.145
RRIRGRPPRLPRPRPRPTGDPRP	0.782
RRIRCRPPRLPRPRPRPNAYPRP	-0.502
RRIRDRPPRLPRPRPRPKFPPRP	-0.237
RRIRPRPPRLPRPRPRPDLMPRP	0.303
RRIRARPPRLPRPRPRPLADPRP	0.42
RRIRFRPPRLPRPRPRPYPAPRP	-0.512
RRIRMRPPRLPRPRPRPTINPRP	-0.109
RRIRTRPPRLPRPRPRPCWNPRP	0.00718
RRIRTRPPRLPRPRPRPGRAPRP	0.446
RRIRRRPPRLPRPRPRPVDTPRP	0.0438
RRIRWRPPRLPRPRPRPAMAPRP	0.529
RRIRPRPPRLPRPRPRPEDYPRP	-0.0172
RRIRERPPRLPRPRPRPSRCPRP	0.0232
RRIRSRPPRLPRPRPRPMLCPRP	-0.121
RRIRDRPPRLPRPRPRPRHMPRP	0.0599
RRIRHRPPRLPRPRPRPHDKPRP	-0.293
RRIRGRPPRLPRPRPRPAMHPRP	1.03
RRIRERPPRLPRPRPRPYWNPRP	-0.858
RRIRARPPRLPRPRPRPDRVPRP	-0.0545
RRIRTRPPRLPRPRPRPHIHPRP	-0.102
RRIRKRPPRLPRPRPRPMWTPRP	0.151
RRIRPRPPRLPRPRPRPPQNPRP	0.361
RRIRQRPPRLPRPRPRPYHTPRP	-0.00448
RRIRTRPPRLPRPRPRPLAPPRP	0.263

Sequence	shrunken log2 fold change
RRIRHRPPRLPRPRPRPQWTPRP	-0.00992
RRIRHRPPRLPRPRPRPQRMPRP	-0.16
RRIRNRPPRLPRPRPRPVTVPRP	-0.404
RRIRMRPPRLPRPRPRPPVNPRP	0.648
RRIRLRPPRLPRPRPRPDGLPRP	-0.115
RRIRPRPPRLPRPRPRPEQCPRP	-0.0149
RRIRMRPPRLPRPRPRPRTKPRP	1.21
RRIRTRPPRLPRPRPRPCLMPRP	-0.15
RRIRIRPPRLPRPRPRPSDRPRP	-0.24
RRIRIRPPRLPRPRPRPCCEPRP	-0.731
RRIRPRPPRLPRPRPRPPDAPRP	0.553
RRIRHRPPRLPRPRPRPGALPRP	-0.00348
RRIRARPPRLPRPRPRPLWAPRP	0.589
RRIRQRPPRLPRPRPRPMIWPRP	-0.79
RRIRMRPPRLPRPRPRPYKWPRP	-0.141
RRIRMRPPRLPRPRPRPDMMPRP	0.187
RRIRIRPPRLPRPRPRPARWPRP	0.412
RRIRHRPPRLPRPRPRPYEWPRP	-0.0335
RRIRNRPPRLPRPRPRPCLIPRP	-0.018
RRIRYRPPRLPRPRPRPHKVPRP	-0.739
RRIRRRPPRLPRPRPRPDIMPRP	-0.146
RRIRYRPPRLPRPRPRPWHFPRP	-1.15
RRIRERPPRLPRPRPRPSIGPRP	-0.406
RRIRGRPPRLPRPRPRPTYYPRP	0.0798
RRIRCRPPRLPRPRPRPGNPPRP	-0.132

Sequence	shrunken log2 fold change
RRIRYRPPRLPRPRPRPFTTPRP	0.0402
RRIRWRPPRLPRPRPRPLSTPRP	0.383
RRIRHRPPRLPRPRPRPNQYPRP	-0.663
RRIRFRPPRLPRPRPRPTWFPRP	0.0971
RRIRPRPPRLPRPRPRPASMPRP	-0.295
RRIRKRPPRLPRPRPRPFLHPRP	-0.0903
RRIRGRPPRLPRPRPRPWSPPRP	0.178
RRIRGRPPRLPRPRPRPNNSPRP	-0.114
RRIRQRPPRLPRPRPRPYCEPRP	-0.327
RRIRRRPPRLPRPRPRPQEQPRP	-0.0166
RRIRMRPPRLPRPRPRPMMSPRP	0.0456
RRIRFRPPRLPRPRPRPLTIPRP	-0.219
RRIRARPPRLPRPRPRPITCPRP	-0.119
RRIRTRPPRLPRPRPRPRRWPRP	-0.0464
RRIRWRPPRLPRPRPRPKFQPRP	-0.00693
RRIRQRPPRLPRPRPRPFMNPRP	-0.148
RRIRKRPPRLPRPRPRPVTFPRP	-0.126
RRIRNRPPRLPRPRPRPSIGPRP	-0.109
RRIRRRPPRLPRPRPRPHWLPRP	0.28
RRIRLRPPRLPRPRPRPHYWPRP	-0.356
RRIRLRPPRLPRPRPRPGTGPRP	-0.0967
RRIRSRPPRLPRPRPRPHSPPRP	0.146
RRIRRRPPRLPRPRPRPYSKPRP	-0.129
RRIRKRPPRLPRPRPRPGETPRP	0.476
RRIRWRPPRLPRPRPRPELFPRP	-0.0123

Sequence	shrunken log2 fold change
RRIRKRPPRLPRPRPRPPYMPRP	-0.209
RRIRFRPPRLPRPRPRPENLPRP	-0.0251
RRIRRRPPRLPRPRPRPNMAPRP	0.0119
RRIRPRPPRLPRPRPRPKSVPRP	-0.119
RRIRMRPPRLPRPRPRPYAVPRP	-0.0789
RRIRYRPPRLPRPRPRPKEFPRP	-0.00973
RRIRGRPPRLPRPRPRPIENPRP	0.745
RRIRFRPPRLPRPRPRPVLLPRP	-0.209
RRIRHRPPRLPRPRPRPGHIPRP	-0.282
RRIRIRPPRLPRPRPRPLDQPRP	-0.127
RRIRLRPPRLPRPRPRPSTDPRP	-0.356
RRIRIRPPRLPRPRPRPKASPRP	-0.0616
RRIRKRPPRLPRPRPRPPCTPRP	0.193
RRIRTRPPRLPRPRPRPITIPRP	-0.151
RRIRCRPPRLPRPRPRPGLCPRP	0.291
RRIRFRPPRLPRPRPRPESTPRP	-0.00608
RRIRWRPPRLPRPRPRPQGYPRP	-0.0909
RRIRNRPPRLPRPRPRPPHAPRP	0.22
RRIRQRPPRLPRPRPRPFFQPRP	-0.0889
RRIRFRPPRLPRPRPRPELGPRP	0.144
RRIRFRPPRLPRPRPRPCQYPRP	-0.53
RRIRRRPPRLPRPRPRPNYRPRP	0.0832
RRIRWRPPRLPRPRPRPVGLPRP	0.568
RRIRDRPPRLPRPRPRPVGRPRP	0.301
RRIRMRPPRLPRPRPRPVDDPRP	-0.0248

Sequence	shrunken log2 fold change
RRIRARPPRLPRPRPRPKWAPRP	0.688
RRIRNRPPRLPRPRPRPKIKPRP	-0.256
RRIRCRPPRLPRPRPRPINDPRP	-0.505
RRIRFRPPRLPRPRPRPLKYPRP	-0.262
RRIRKRPPRLPRPRPRPTCSPRP	0.281
RRIRPRPPRLPRPRPRPWDNPRP	-0.00581
RRIRARPPRLPRPRPRPQVMPRP	-0.00224
RRIRSRPPRLPRPRPRPTTYPRP	-0.359
RRIRIRPPRLPRPRPRPGFEPRP	3.71
RRIRKRPPRLPRPRPRPKCTPRP	0.0297
RRIRWRPPRLPRPRPRPGMRPRP	0.976
RRIRTRPPRLPRPRPRPCDLPRP	0.0183
RRIRMRPPRLPRPRPRPLQPPRP	0.737
RRIRARPPRLPRPRPRPTEPPRP	0.797
RRIRERPPRLPRPRPRPLEYPRP	-0.494
RRIRGRPPRLPRPRPRPDITPRP	1.01
RRIRNRPPRLPRPRPRPTAIPRP	-0.072
RRIRKRPPRLPRPRPRPYGAPRP	0.00792
RRIRNRPPRLPRPRPRPAMDPRP	0.166
RRIRQRPPRLPRPRPRPLANPRP	-0.00739
RRIRARPPRLPRPRPRPSGGPRP	0.115
RRIRSRPPRLPRPRPRPVRAPRP	0.655
RRIRFRPPRLPRPRPRPSISPRP	-1.18
RRIRERPPRLPRPRPRPQRAPRP	0.254
RRIRRRPPRLPRPRPRPDDDPRP	0.129
